{"source": "the supplement of paper PMC9170038", "data": [{"tested_on": "MS2 coat protein", "experiment": "apparent KD of MS2 coat protein; higher = weaker reporter binding", "conditions": "Eterna round: R107; input ligand: theophylline 20 uM", "protocol": "(§1)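 RNA-MaP round R107: designed RNA switches with theophylline, tryptophan, arginine or FMN aptamers are transcribed on-chip within common flanks. They are titrated with SNAP-549-labelled MS2 coat protein in RNA-MaP buffer (100 mM Tris pH 7.5, 80 mM KCl, 4 mM MgCl2), without ligand or with the indicated ligand. Median apparent KD per design.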", "units": {"apparent KD of MS2 coat protein": "nM"}, "values": [{"sequence": "AAGUAAACAUGAGCAAAGCUCAUGUGCGAAGGAGCGGCGGAAACGCCAGGUAGGUCGCGCACAUGAGCAUCAGCCAUGUGUGUCA [Omei Arginine B SS A v1]", "apparent KD of MS2 coat protein": 89.8}, {"sequence": "UCCAUCGGCGGAAGCCGAUGGUUUACAGAAGGAGCGUGGAUUAACACAGGUAGGUCGCUGGACAUGAGGAUCACCCAUGUGAUAG [SSAA #6]", "apparent KD of MS2 coat protein": 117}, {"sequence": "AUACGGCGGUAAAAUCAGAGAGUAAAAGAUACCAGCAAUAAUAAAUGCCCUUGGCAGCUUCUGACAUGAGGAUCACCCAUGUAAA [theeternabot_exclusion_MS2_Theo_A_49]", "apparent KD of MS2 coat protein": 18}, {"sequence": "UGACAUUGCUCAGAUACCAGACAUGAGGAUCACCCAUGUACCGAGGUACCCGAAAGGAAUGUCCCUUGGCAGCUGAGCAAUGUCU [TheoBX 4 #MS2Left #Theo2 #StaticStem]", "apparent KD of MS2 coat protein": 15.5}, {"sequence": "UAAAAUAAAAGGGUGAAGGUAUAAACAGAUACCAGCCAGAUAACUGGCCCUUGGCAGCUGAAUGACAUGAGGAUCACCCAUGUCU [TheoAS 21 #OpenEnded #Ms2Late]", "apparent KD of MS2 coat protein": 17.7}, {"sequence": "GACGCAUGAGUUGUAACAGCUCAUGGGUCGCGAGGACCGGUACGGCCGCCACUCGGCUGUACAUGAGGAUCACCCAUGUCAGGGU [#1 Same State - Tryptophan A Attempt #29 (HarryS)]", "apparent KD of MS2 coat protein": 1320}, {"sequence": "GGUUACUCUACGGCCGCCACUGAUUAAUUAUAAACCUGUACAUAAACAUGAGGAUCACCCAUGUACAGGACCGGGUAGUGUAACC [Tryptophan B 9]", "apparent KD of MS2 coat protein": 46.9}, {"sequence": "ACGUAAUGCAGAAGGAGCGUCAUUUUAAAACAUGAGGAUCACCCAUGUAAUAUUUUUGUGUGACAGGUAGGUCGCUGAAGUACGA [JR_SSArginiB_Sub007]", "apparent KD of MS2 coat protein": 17.7}, {"sequence": "AAACAACAUGAGGAUCACCCAUGUACCGAUACCAGCCAAAUAUAAGGCCCUUGGCAGCGGAGUAAAUCCGGAGGACAAUGGGUAA [Same State Theophylline A GF5]", "apparent KD of MS2 coat protein": 39.2}, {"sequence": "UGUACUAUGUGAAGGAGCGAGAAUCCUACAUGAGGAUCACCCAUGUAACAGCGAAAGCUGACUCAGGUAGGUCGCACAUAGUACU [ArgBS - First try]", "apparent KD of MS2 coat protein": 115}, {"sequence": "AAUACCGGAUCGGCCGCCACUGGUUGGCCCUGUGUACAUGAGGAUCACCCAUGUCCAUCCCAGACCAGGACCGGGAUCUUUGUGU [Ingeraza]", "apparent KD of MS2 coat protein": 20}, {"sequence": "AAAUAAAUCACAUGAGGAUCACCCAUGGAUACCAGGCCUGGAAACAGCCCUUGGCAGCCACAUGAGGAUCACCCAUGUGCUAAUA [MAT - Exclusion Theophlline A - Mod of Eli - D1]", "apparent KD of MS2 coat protein": 194}, {"sequence": "UAUCGUCAGACGGCCGCCACUAGAACAUGAGGAUCACCCAUGUACGGCCGCCCGGUAUGGGUGUCUAGGACCGGGUCUGACGAAU [(Trp1)-(Ms2)-(T)'-(M)'-(Trp2)_Design21]", "apparent KD of MS2 coat protein": 37.8}, {"sequence": "AGUGUUAUAACUGAUACCAGACUCUCAUGUUUACAUGAGGAUCACCCAUGUUAUUUCUUUGUCCCUUGGCAGCAGAAUUUACACA [JR_SSTheophyB_Sub009]", "apparent KD of MS2 coat protein": 298}, {"sequence": "GGGUAAGAUCCGGAUACCAGCGAACAUGAGGAUCACCCAUGUGAAAUAAGAUAGACUAAACGCCCUUGGCAGCCGAAAUAGCGUU [Same State Theophylline B GF 4]", "apparent KD of MS2 coat protein": 84.7}, {"sequence": "CCGACGAUGACCAAAGGUCAGGAGUGCGCACGAGGACCGGUACGGCCGCCACUCGAGGAGUGGGACAUGAGGAUCACCCAUGUAA [X-TryptA-ms2@65-1]", "apparent KD of MS2 coat protein": 29}, {"sequence": "AUAAUAAAGACGGCCGCCACUAUAAACAUGAGGAACAUGAGGAUCACCCAUGUAUGAGGAUCACCUAGGACCGGGUCAAAUAUUA [AstrosExyTryB#3]", "apparent KD of MS2 coat protein": 70.1}, {"sequence": "CGCGAGACGGCGGCCGCCACUUGUUGUUGGAAACUCGAGUUACAUGAGGAUCACCCAUGUCCUUAAAGGACCGGGCCGUAAGUAA [theeternabot_sameState_MS2_Trp_B_13]", "apparent KD of MS2 coat protein": 198}, {"sequence": "CAAAGUUCGUCUCUGGUCCUCUAAUCGGCUCGAGGACCGGUACGGCCGCCACUCGCCCGACAUGAGGAUCACCCAUGUCUGUAAA [Dilaanis]", "apparent KD of MS2 coat protein": 23}]}, {"tested_on": "MS2 coat protein", "experiment": "apparent KD of MS2 coat protein; higher = weaker reporter binding", "conditions": "Eterna round: R107; input ligand: theophylline 2 mM", "protocol": "as §1", "units": {"apparent KD of MS2 coat protein": "nM"}, "values": [{"sequence": "CAUAUAUAUUGAAGGAGCGUCGAAAAUGGGUAAACAUGAGGAUCACCCAUGUAAAGGGAACGACAGGUAGGUCGCAAUAUAUAUG [AstromonsSSArgB#4]", "apparent KD of MS2 coat protein": 177}, {"sequence": "AAACAUGAGGAUCACCCAUGUAUGUUAUUACGAGGACCGGUACGGCCGCCACUCGAUAGAGUAGAAGUAAAUUGUAAUUCAUGUU [JR_ExcTryptoA_Sub017]", "apparent KD of MS2 coat protein": 16.9}, {"sequence": "GACCGGUUAUAGUGCGAUUGUCUUGUGGAAGGAGCGCAGAGGACUGCAGGUAGGUCGCCACAUGAGGAUCACCCAUGUCAGGAUA [Tirevete]", "apparent KD of MS2 coat protein": 43.9}, {"sequence": "AUUCAUGGAAACAUGACAUAGGGAUCACUCCGAGGACCGGUACGGCCGCCACUCGCGAGGAGGCACAUGAGGAUCACCCAUGUUA [SS Tryp A #4]", "apparent KD of MS2 coat protein": 92.1}, {"sequence": "UAUCCACAUGAGGAUCACCCAUGUAGGGAAGGAGCGGUGGUUUCACCAGGUAGGUCGCCUUACUGAGGAGAACCGGUGGAAUCGU [Exclusion - Arginine A (Freestyle 29)]", "apparent KD of MS2 coat protein": 105}, {"sequence": "GUAAUUAUAAGAAGGAGCGUCGAAAAUGGGUAAACAUGAGGAUCACCCAUGUAAAGGGAACGACAGGUAGGUCGCUUAUGGUUAC [AstromonsSSArgB#24]", "apparent KD of MS2 coat protein": 305}, {"sequence": "UCGGGUUUGCGAAGGAGCGGGUAUGUUUUCUAGUGGAUCCUAACAUGAGGAUCACCCAUGUCCCAGGUAGGUCGCGCGGGUUUGG [12.W]", "apparent KD of MS2 coat protein": 168}, {"sequence": "UAUCCACAUGAGGAUCACCCAUGUUAGGAAGGAGCGGUGAAUGCACCAGGUAGGUCGCCUAGCUGAGGACUGUCGAUGGAUUCGU [Exclusion - Arginine A (Freestyle 18)]", "apparent KD of MS2 coat protein": 39.6}, {"sequence": "GGACUAACCAGAAGGAGCGGCACGCAGAAACUGCAAAUUCCUCCGCACGAGGAUCACCCGUGUCAGGUAGGUCGCUGGUUAGUCG [ArgBX 28]", "apparent KD of MS2 coat protein": 24}, {"sequence": "CGGUGUAGGGUUAAUAGGCUGAGUACAGAAGGAGCGCGAAUAAACGCAGGUAGGUCGCUGGCGAACAUGAGGAUCACCCAUGUAU [Same State Arginine A GF 30]", "apparent KD of MS2 coat protein": 32}, {"sequence": "AAGACGGUCGGAAGGAGCGGUACAUGAGGAUCACCCAUGUACUCCUGGGCAUCCGUAGUGUGCCAGGUAGGUCGCCGAUUGCGGG [XArg-B14]", "apparent KD of MS2 coat protein": 16.6}, {"sequence": "GGGUGUGAUCCGGAUACCAGCGAACAUGAGGAUCACCCAUGUGACCUGAGAUCGGCUCUACGCCCUUGGCAGCCGCGAUCGCAGG [Same State Theophylline B GF12]", "apparent KD of MS2 coat protein": 37.9}, {"sequence": "AGAAUGUAAUAUGGCAAAGUUAUAACCGAAGGAGCGCCGAAUAAGGCAGGUAGGUCGCGGAAACAUGAGGAUCACCCAUGUCCAU [Arginine A Same State; Euphoria Solution 3]", "apparent KD of MS2 coat protein": 14.4}, {"sequence": "AAACAUGAGGAUCACCCAUGUGGAACCGAAGGAGCGGCGCACAUGCCAGGUAGGUCGCGGGACAUGAGGACAUGAGGAUCACCCA [Same State Arginine A 3]", "apparent KD of MS2 coat protein": 184}, {"sequence": "AAUUCCUCACAUGAGGAUCACCCAUGUGAAGGAGCGCCGAAUAAGGCAGGUAGGUCGCACAUGGAAACCGCUACGAAAGUAGCAA", "apparent KD of MS2 coat protein": 20.5}, {"sequence": "AAAGAUCGGAAACGAUCGGCGGCUUGGGCGCGAGGACCGGUACGGCCGCCACUCGGGAAACAUGAGGAUCACCCAUGUUGCUAGC [ETA NP+V+V2 #15]", "apparent KD of MS2 coat protein": 16.8}, {"sequence": "AAGUAAACAUGAGCAAAGCUCAUGUGCGAAGGAGCGGCGGAAACGCCAGGUAGGUCGCGCACAUGAGCAUCAGCCAUGUGUGUCA [Omei Arginine B SS A v1]", "apparent KD of MS2 coat protein": 58.9}, {"sequence": "UCCAUCGGCGGAAGCCGAUGGUUUACAGAAGGAGCGUGGAUUAACACAGGUAGGUCGCUGGACAUGAGGAUCACCCAUGUGAUAG [SSAA #6]", "apparent KD of MS2 coat protein": 60.4}, {"sequence": "GACGCAUGAGUUGUAACAGCUCAUGGGUCGCGAGGACCGGUACGGCCGCCACUCGGCUGUACAUGAGGAUCACCCAUGUCAGGGU [#1 Same State - Tryptophan A Attempt #29 (HarryS)]", "apparent KD of MS2 coat protein": 1310}, {"sequence": "GGUUACUCUACGGCCGCCACUGAUUAAUUAUAAACCUGUACAUAAACAUGAGGAUCACCCAUGUACAGGACCGGGUAGUGUAACC [Tryptophan B 9]", "apparent KD of MS2 coat protein": 39.1}]}]}
